Measurements: FireProtDB (doi:10.1006/jmbi.1995.0616)

B1: Subtilisin-chymotrypsin inhibitor-2A, P01053 (parent)
chain: MSSVEKKPEGVNTGAGDRHNLKTEWPELVGKSVEEAKKVILQDKPEAQIIVLPVGTIVTMEYRIDRVRLFVDKLDNIAQVPRVG

Variants of: B1
Conditions: Hordeum vulgare; pH 6.25; 25 °C; GdnHCl; Fluorescence; MES 50 mM; reversible: yes; structure 2CI2; whole UniProt chain shown

Variant	ddG of mutation (higher = less stable)	denaturant m value	denaturant midpoint (higher = more stable)	unfolding free energy
MSSVEKKPEGVNTGAGDRHNLKTEWPELVGKSVEEAKKVILQDKAEAQIIVLPVGTIVTMEYRIDRVRLFVDKLDNIAQVPRVG [P45A]	5.1 kJ/mol	2.07 kcal/mol/M	3.09 M	26.7 kJ/mol
MSSVEKKPEGVNTGAGDRHNLKTEWPELVGKSVEEAKKVILQDKPEAQIIVLPVGTIATMEYRIDRVRLLVDKLDNIAQVPRVG [V58A F70L]	9.2 kJ/mol	2.02 kcal/mol/M	2.67 M	22.6 kJ/mol
MSSVEKKPEGVNTGAGDRHNLKTEWPELVGKSVEEAKKVILQDKPEAQIIVLPVGSIVTMEYRIDRVRLFVDKLDNIAQVPRVG [T56S]	4.1 kJ/mol	1.66 kcal/mol/M	3.99 M	27.7 kJ/mol
MSSVEKKPEGVNTGAGDRHNLKTEWPELVGKSVEEAKKVILQDKPEAQIIVLPVGAIVTMEYRIDRVRLFVDKLDNIAQVPRVG [T56A]	5.94 kJ/mol	1.5 kcal/mol/M	4.12 M	25.9 kJ/mol
MSSVEKKPEGVNTGAGDRHNLKTEWPELVGKSVEEAKKVILQDKPEAQIIVLPVGVIVTMEYRIDRVRLFVDKLDNIAQVPRVG [T56V]	6.57 kJ/mol	1.67 kcal/mol/M	3.61 M	25.2 kJ/mol
MSSVEKKPEGVNTGAGDRHNLKTEWPELVGKSVAAAKKVILQDKPEAQIIVLPVGTIVTMEYRIDRVRLFVDKLDNIAQVPRVG [E34A E35A]	-0.0837 kJ/mol	2.11 kcal/mol/M	3.61 M	31.9 kJ/mol
MSSVEKKPEGVNTGAGDRHNLKTEWPELVGKSVEEAKKVIAQDKPEAQIIVLPVGTIVTMEYRIDRVRLFVDKLDNIAQVPRVG [L41A]	5.06 kJ/mol	1.93 kcal/mol/M	3.32 M	26.7 kJ/mol
MSSVEKKPEGVNTGAGDRHNLKTEWPELVGKSVEEAKKVIGQDKPEAQIIVLPVGTIVTMEYRIDRVRLFVDKLDNIAQVPRVG [L41G]	8.74 kJ/mol	1.68 kcal/mol/M	3.29 M	23.1 kJ/mol
MSSVEKKPEGVNTGAGDRHNLKTEWPELVGKSVENAKKVILQDKPEAQIIVLPVGTIVTMEYRIDRVRLFVDKLDNIAQVPRVG [E35N]	0.335 kJ/mol	2.18 kcal/mol/M	3.45 M	31.5 kJ/mol
MSSVEKKPEGVNTGAGDRHNLKTEWPELVGKSVEDAKKVILQDKPEAQIIVLPVGTIVTMEYRIDRVRLFVDKLDNIAQVPRVG [E35D]	-1.51 kJ/mol	2.2 kcal/mol/M	3.62 M	33.3 kJ/mol
MSSVEKKPEGVNTGAGDRHNLKTEWPELVGKSVEQAKKVILQDKPEAQIIVLPVGTIVTMEYRIDRVRLFVDKLDNIAQVPRVG [E35Q]	2.85 kJ/mol	1.84 kcal/mol/M	3.76 M	29 kJ/mol
MSSVEKKPEGVNTGAGDRHNLKTEWPELVGKSVEEAAKVILQDKPEAQIIVLPVGTIVTMEYRIDRVRLFVDKLDNIAQVPRVG [K37A]	4.73 kJ/mol	1.73 kcal/mol/M	3.75 M	27.1 kJ/mol
MSSVEKKPEGVNTGAGDRHNLKTEWPELVGKSVEEAGKVILQDKPEAQIIVLPVGTIVTMEYRIDRVRLFVDKLDNIAQVPRVG [K37G]	8.41 kJ/mol	1.99 kcal/mol/M	2.8 M	23.4 kJ/mol
MSSVEKKPEGVNTGAGDRHNLKTEWPELVGKSVEEAKKVILQDKPEAQIIVLAVGTIVTMEYRIDRVRLFVDKLDNIAQVPRVG [P53A]	2.43 kJ/mol	1.79 kcal/mol/M	3.91 M	29.4 kJ/mol
MSSVEKKPEGVNTGAGDRHNLKTEWPELVGKSVEEGKKVILQDKPEAQIIVLPVGTIVTMEYRIDRVRLFVDKLDNIAQVPRVG [A36G]	5.9 kJ/mol	1.8 kcal/mol/M	3.44 M	25.9 kJ/mol
MSSVEKKPEGVNTGAGDRHNLKTEWPELVGKAVAAAKKVILQDKPEAQIIVLPVGTIVTMEYRIDRVRLFVDKLDNIAQVPRVG [S32A E34A E35A]	3.14 kJ/mol	2.18 kcal/mol/M	3.14 M	28.7 kJ/mol
MSSVEKKPEGVNTGAGDRHNLATEWPELVGKSVEEAKKVILQDKPEAQIIVLPVGTIVTMEYRIDRVRLFVDKLDNIAQVPRVG [K22A]	4.35 kJ/mol	1.77 kcal/mol/M	3.72 M	27.4 kJ/mol
MSSVEKKPEGVNTGAGDRHNLKTEWPELVGASVEEAKKVILQDKPEAQIIVLPVGTIVTMEYRIDRVRLFVDKLDNIAQVPRVG [K31A]	5.02 kJ/mol	1.52 kcal/mol/M	4.22 M	26.8 kJ/mol
MSSVEKKPEGVNTGAGDRHNLKTEWPQLVGKSVEEAKKVILQDKPEAQIIVLPVGTIVTMEYRIDRVRLFVDKLDNIAQVPRVG [E27Q]	2.38 kJ/mol	1.91 kcal/mol/M	3.68 M	29.4 kJ/mol
MSSVEKKPEGVNTGAGDRHNLKTEWPALVGKSVEEAKKVILQDKPEAQIIVLPVGTIVTMEYRIDRVRLFVDKLDNIAQVPRVG [E27A]	4.31 kJ/mol	1.75 kcal/mol/M	3.76 M	27.5 kJ/mol
MSSVEKKPEGVNTGAGDRHNLKTEWPELVGKSVEEAKKVVLQDKPEAQIIVLPVGTIVTMEYRIDRVRLFVDKLDNIAQVPRVG [I40V]	4.06 kJ/mol	1.99 kcal/mol/M	3.33 M	27.7 kJ/mol
MSSVEKKPEGVNTGAGDRHNLKTEWPELVGKSVEEAKKVILQDKPEAQIIVVPVGTIATMEYRIDRVRLLVDKLDNIAQVPRVG [L52V V58A F70L]	11.9 kJ/mol	1.83 kcal/mol/M	2.6 M	19.9 kJ/mol
MSSVEKKPEGVNTGAGDRHNLKTEWPELVGKSVEEAKKVILQDKPEAQIIVAPVGTIATMEYRIDRVRLLVDKLDNIAQVPRVG [L52A V58A F70L]	14 kJ/mol	1.93 kcal/mol/M	2.21 M	17.8 kJ/mol
MSSVEKKPEGVNTGAGDRHNLKTEWPELVGKSVEEAKKVILQDKPEAQIIVAPVGTIVTMEYRIDRVRLLVDKLDNIAQVPRVG [L52A F70L]	13.6 kJ/mol	1.94 kcal/mol/M	2.24 M	18.2 kJ/mol
MSSVEKKPEGVNTGAGDRHNLKTEWPELVGKSVEEAKKVILQDKPEAQIIVAPVGTIVTMEYRIDRVRLAVDKLDNIAQVPRVG [L52A F70A]	21.6 kJ/mol	1.59 kcal/mol/M	1.53 M	10.2 kJ/mol
MSSVEKKPEGVNTGAGDRHNLATEWPALVGKSVEEAKKVILQDKPEAQIIVLPVGTIVTMEYRIDRVRLFVDKLDNIAQVPRVG [K22A E27A]	4.9 kJ/mol	1.87 kcal/mol/M	3.43 M	26.9 kJ/mol
